Data set [1] in a line: fluorescence microscopy, NuMA volume at spindle poles. As to conditions: control: DMSO.
The nature of data set [2]: confocal microscopy of metaphase cells. To be noted: glycan lost; control: wt NuMA-GFP in NuMA-depleted HeLa.
Data set [3] in a line: Galectin-3 over NuMA fluorescence intensity. To be noted: glycan lost; control: wt NuMA-GFP in NuMA-depleted HeLa.

In the case of “NuMA (Nuclear Mitotic Apparatus protein): Ac-5SGlcNAc”, the localisation_or_trafficking result in data set [1] (glycan lost) was “changes”. For “NuMA (Nuclear Mitotic Apparatus protein): GalNAcα-O-benzyl”, the localisation_or_trafficking entry in data set [1] (glycan lost) is “no change”.

Consider “NuMA (Nuclear Mitotic Apparatus protein): S1844A”, for which the localisation_or_trafficking entry in data set [2] is given as “changes”. Besides, the “other: Galectin-3 recruitment to spindle poles” value in data set [3] is given as “decreases”. Take “NuMA (Nuclear Mitotic Apparatus protein): swainsonine”: the localisation_or_trafficking entry in data set [1] (glycan changed form) was “no change”.

For the origin of these results see article PMC5431095.
